Measurements from patent US20220411514A1, “ANTI-GAL3 ANTIBODIES AND METHODS OF USE FOR INSULIN RESISTANCE” (TrueBinding, Inc., priority 2021, published 2022).

Test system: NOD/ShiLtJ mice
Text: To assess the therapeutic potential of anti-GAL3 antibody in Type I diabetes, a mouse model of diabetes type I was used. Briefly, seven-weeks-old female NOD/ShiLtJ mice (Jackson lab (001976)) and control group animals NOR/LtJ (Jackson Lab (002050)) were housed in standard disposable cages with filter tops at room temperature with a 6:00-18:00 day-night cycle. Mice were allowed to rest for a week before initiating glucose monitoring. The antibody treatment was initiated when glucose levels reach 250-400 (mg/dL) for two consecutive days. To establish glucose levels, the blood samples were collected from tail vein of the experimental animals following housing in clean cages with water and no food for 4-6 hours. The collected samples were analyzed by HemoCue Glucose 201 Analyzer and cuvettes (Mercedes Scientific 110706). The animals were dosed twice a week (10 mg/kg) with anti-GAL3 antibodies (mTB001) or PBS control. […] At the end stage, the plasma samples were collected from symptomatic animals. C-peptide levels were determined by Alpco Mouse C-peptide ELISA kit (Alpco, 80-CPTMS-E01).

B1: mTB001: anti-Gal3 antibody mTB001 (antibody)
heavy: QIQLVQSGPELKKPGETVKISCKASGYTFTNYGMNWVKQAPGKGLKWMGWINTNTGEPTYVEEFKGRFAFSLETSASTAYLQINNLKNEDTATYFCAPYDNFFAYWGQGTLVTVSAAKTTPPSVYPLAPVCGDTTGSSVTLGCLVKGYFPEPVTLTWNSGSLSSGVHTFPAVLQSDLYTLSSSVTVTSSTWPSQSITCNVAHPASSTKVDKKIEPRGPTIKPCPPCKCPAPNAAGGPSVFIFPPKIKDVLMISLSPIVTCVVVDVSEDDPDVQISWFVNNVEVHTAQTQTHREDYNSTLRVVSALPIQHQDWMSGKEFKCKVNNKDLGAPIERTISKPKGSVRAPQVYVLPPPEEEMTKKQVTLTCMVTDFMPEDIYVEWTNNGKTELNYKNTEPVLDSDGSYFMYSKLRVEKKNWVERNSYSCSVVHEGLHNHHTTKSFSRTPGK
light: DIVITQDELSNPVTSGESVSISCRSSKSLLYKDGKTYLNWFLQRPGQSPQLLIYLMSTHASGVSDRFSGSGSGTDFTLEISRVKAEDVGVYYCQQLVDYPLTFGAGTKLELKRADVAPTVSIFPPSSEQLTSGGASVVCFLNNFYPKDINVKWKIDGSERQNGVLNSWTDQDSKDSTYSMSSTLTLTKDEYERHNSYTCEATHKTSTSPIVKSFNRNEC
modifications: mTB001 heavy chain peptide sequence; mTB001 light chain peptide sequence
10 mg/kg twice a week
  blood glucose levels: stabilizing the levels of blood glucose
  survival: prolonged survival
End stage plasma
  circulating C-peptide levels: restoring C-peptide levels
